Experiments:
[1] = biological target: proenzyme C3bB (Homo sapiens, UniProt P01024;P00751); assay: SPR
[2] = biological target: C3b (human, UniProt P01024); assay: SPR

Sequence of proenzyme C3bB (P00751 whole entry, looked up, chain 1 of 2): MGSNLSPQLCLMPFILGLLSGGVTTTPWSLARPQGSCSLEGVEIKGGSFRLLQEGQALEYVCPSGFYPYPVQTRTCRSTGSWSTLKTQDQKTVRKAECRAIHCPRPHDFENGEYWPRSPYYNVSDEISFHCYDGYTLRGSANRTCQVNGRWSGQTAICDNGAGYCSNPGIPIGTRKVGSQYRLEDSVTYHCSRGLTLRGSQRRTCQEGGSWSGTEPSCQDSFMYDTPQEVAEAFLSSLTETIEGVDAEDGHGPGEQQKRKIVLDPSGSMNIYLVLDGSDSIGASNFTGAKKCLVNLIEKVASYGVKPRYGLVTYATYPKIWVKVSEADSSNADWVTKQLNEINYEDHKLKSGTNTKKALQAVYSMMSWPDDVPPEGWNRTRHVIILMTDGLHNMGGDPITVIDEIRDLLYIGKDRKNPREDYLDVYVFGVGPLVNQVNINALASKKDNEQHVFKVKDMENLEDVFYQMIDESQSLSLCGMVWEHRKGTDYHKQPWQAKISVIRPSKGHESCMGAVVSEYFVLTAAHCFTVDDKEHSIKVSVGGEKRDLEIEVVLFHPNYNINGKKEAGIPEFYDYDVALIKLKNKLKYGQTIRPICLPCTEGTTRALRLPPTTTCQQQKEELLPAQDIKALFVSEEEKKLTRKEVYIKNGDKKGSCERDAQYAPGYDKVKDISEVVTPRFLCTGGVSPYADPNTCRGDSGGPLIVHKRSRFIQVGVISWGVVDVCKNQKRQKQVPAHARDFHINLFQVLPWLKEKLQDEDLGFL
Sequence of proenzyme C3bB (P01024 whole entry, looked up, chain 2 of 2): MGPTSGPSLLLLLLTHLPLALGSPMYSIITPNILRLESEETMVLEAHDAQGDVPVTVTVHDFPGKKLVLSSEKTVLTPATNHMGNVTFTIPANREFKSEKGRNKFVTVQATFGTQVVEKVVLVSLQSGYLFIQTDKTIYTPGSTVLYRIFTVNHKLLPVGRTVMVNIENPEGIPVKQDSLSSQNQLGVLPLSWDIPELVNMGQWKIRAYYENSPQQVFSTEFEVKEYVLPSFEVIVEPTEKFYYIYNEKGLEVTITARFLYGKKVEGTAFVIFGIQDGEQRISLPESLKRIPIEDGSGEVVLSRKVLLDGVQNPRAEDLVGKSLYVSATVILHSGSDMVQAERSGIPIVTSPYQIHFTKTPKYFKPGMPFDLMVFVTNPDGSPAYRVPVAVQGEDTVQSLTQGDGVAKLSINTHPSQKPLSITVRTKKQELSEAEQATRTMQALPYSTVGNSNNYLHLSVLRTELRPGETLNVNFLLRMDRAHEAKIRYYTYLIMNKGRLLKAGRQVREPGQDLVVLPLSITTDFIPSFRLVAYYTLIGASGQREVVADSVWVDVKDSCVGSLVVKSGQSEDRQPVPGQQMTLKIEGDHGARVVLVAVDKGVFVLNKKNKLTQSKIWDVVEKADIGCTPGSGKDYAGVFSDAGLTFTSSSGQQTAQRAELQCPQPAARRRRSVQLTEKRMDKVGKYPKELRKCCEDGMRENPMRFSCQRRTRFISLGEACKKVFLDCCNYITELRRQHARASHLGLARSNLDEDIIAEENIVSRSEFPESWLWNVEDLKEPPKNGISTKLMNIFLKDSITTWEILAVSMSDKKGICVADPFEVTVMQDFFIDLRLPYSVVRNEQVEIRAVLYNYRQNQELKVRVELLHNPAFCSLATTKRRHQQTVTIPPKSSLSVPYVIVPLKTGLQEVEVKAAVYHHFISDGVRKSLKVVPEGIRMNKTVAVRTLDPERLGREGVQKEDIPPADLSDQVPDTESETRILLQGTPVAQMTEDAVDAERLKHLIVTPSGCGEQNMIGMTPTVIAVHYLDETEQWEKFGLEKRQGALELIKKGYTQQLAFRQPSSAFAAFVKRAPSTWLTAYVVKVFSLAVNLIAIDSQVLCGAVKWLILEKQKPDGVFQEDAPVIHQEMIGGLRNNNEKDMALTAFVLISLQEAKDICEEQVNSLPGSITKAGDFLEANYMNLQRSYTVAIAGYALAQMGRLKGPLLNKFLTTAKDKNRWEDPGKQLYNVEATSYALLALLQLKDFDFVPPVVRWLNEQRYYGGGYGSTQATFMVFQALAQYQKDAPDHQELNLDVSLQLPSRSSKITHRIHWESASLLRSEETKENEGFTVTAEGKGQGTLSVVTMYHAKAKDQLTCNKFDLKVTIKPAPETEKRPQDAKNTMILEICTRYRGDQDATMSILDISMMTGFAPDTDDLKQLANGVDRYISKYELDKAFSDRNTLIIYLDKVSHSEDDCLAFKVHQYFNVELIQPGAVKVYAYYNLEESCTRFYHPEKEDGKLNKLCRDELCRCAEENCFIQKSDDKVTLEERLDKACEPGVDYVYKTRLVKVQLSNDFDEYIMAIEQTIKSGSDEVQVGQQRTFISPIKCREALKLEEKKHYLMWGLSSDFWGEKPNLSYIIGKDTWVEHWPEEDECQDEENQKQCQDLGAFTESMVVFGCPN

B1: mAb 3E7 (antibody, V domains shown)
VH: EVQLQESGPSLVKPSQTLSLTCSVTGDSITSDYWNWIRKFPGNKLESMGYITYSGTTYYNPSLKSRISITRDTSKNQYYLQLNSVTSEDTATYYCARGVDYEPSYYFDYWGQGTTLTVSS
VL: DIQMTQTTSSLSASLGDRVTISCSASQGISNYLNWYQQKPDGTVKLLIYYTSSLHSGVPSRFSGSGSGTDYSLTISNLEPEDIATYYCQQYSNLPWTFGGGTKLEIK
B1: no binding (tested: 20 μg/ml) [1].

B2: mAb H17 (antibody, V domains shown)
VH: EVQLQESGPSLVKPSQTLSLTCTVSGDSITSDYWNWIRQAPGKGLESMGYITYSGTTYYNPSLKSRVTISRDTSKNQYYMELSSLRSEDTATYYCARGVDYEPSYYFDYWGQGTLVTVSS
VL: DIQMTQSPSSLSASVGDRVTITCSASQGISNYLNWYQQKPGKAPKLLIYYTSSLHSGVPSRFSGSGSGTDYSLTISSLQPEDIATYYCQQYSNLPWTFGQGTKVEIK
With B2 the binding result [1] was “no binding (tested: 20 μg/ml)” and the Kd [2] was 28 nM.
